Patent US20190224274, “MIF INHIBITORS AND METHODS OF USE THEREOF” (The Johns Hopkins University, published 2019)
Where a chain is given by its changes, count along the chain named.

Legend:
MIF D17Q = molecular target: T1, MIF D17Q (Homo sapiens, UniProt P14174 P14174:1-115, D17Q); test: EMSA; 10 mM Mg2+; text prints P17Q; settings: tags: GST tag removed; chain copies: 3; label: 5' biotin; stem loop with unpaired 5' and 3' bases
T1 sequence: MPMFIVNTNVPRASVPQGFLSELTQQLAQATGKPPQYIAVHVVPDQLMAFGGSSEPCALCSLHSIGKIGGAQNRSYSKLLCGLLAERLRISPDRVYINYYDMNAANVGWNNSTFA
Procedure: (§1) Both single stranded and double stranded forms of two classes of MIF DNA binding motifs were examined for MIF binding and cleavage specificity. The ssPS³⁰ sequence was synthesized with a 5′ biotin label and subjected to an electrophoretic mobility shift assay (EMSA) (FIG. 18C).
(§2) EMSA assay was performed using LightShift Chemiluminescent EMSA kit (Thermo Scientific) following the manufactures instruction. Briefly, purified MIF protein (2 μM) was incubated with biotin-labeled DNA substrates (10 nM) in the binding buffer containing 10 mM MgCl₂ for […] on ice. Then samples were separated on 6% retardation polyacrylamide followed by electrophoretic transfer to nylon membrane.

MIF E22Q = molecular target: T2, MIF E22Q (Homo sapiens, UniProt P14174 P14174:1-115, E22Q); test: EMSA; 10 mM Mg2+; settings: tags: GST tag removed; chain copies: 3 (inferred); label: 5' biotin; stem loop with unpaired 5' and 3' bases
T2 sequence: T1 sequence with Q17D, E22Q
Procedure: as §1, §2

MIF P16A = molecular target: T3, MIF P16A (Homo sapiens, UniProt P14174 P14174:1-115, P16A); test: EMSA; 10 mM Mg2+; settings: tags: GST tag removed; chain copies: 3; label: 5' biotin; stem loop with unpaired 5' and 3' bases
T3 sequence: T1 sequence with P16A, Q17D
Procedure: as §1, §2

MIF E22A = molecular target: T4, MIF E22A (Homo sapiens, UniProt P14174 P14174:1-115, E22A); test: EMSA; 10 mM Mg2+; settings: tags: GST tag removed; chain copies: 3 (inferred); label: 5' biotin; stem loop with unpaired 5' and 3' bases
T4 sequence: T1 sequence with Q17D, E22A
Procedure: as §1, §2

MIF D17A = molecular target: T5, MIF D17A (Homo sapiens, UniProt P14174 P14174:1-115, D17A); test: EMSA; 10 mM Mg2+; text prints P17A; settings: tags: GST tag removed; chain copies: 3; label: 5' biotin; stem loop with unpaired 5' and 3' bases
T5 sequence: T1 sequence with Q17A
Procedure: as §1, §2

MIF [1] = molecular target: T6, MIF (Homo sapiens, UniProt P14174 P14174:1-115); test: EMSA; 10 mM Mg2+; settings: tags: GST tag removed (pGex-6P-1); chain copies: 3 (inferred, trimer by FPLC); label: 5' biotin; stem loop, 1 unpaired 3' base
T6 sequence: T1 sequence with Q17D

MIF [2] = molecular target: T6, MIF; test: EMSA; 10 mM Mg2+; settings: tags: GST tag removed (pGex-6P-1); chain copies: 3 (inferred, trimer by FPLC); label: 5' biotin
Procedure: In parallel with the ssDNA studies, MIF was tested to see if it binds to dsDNA using PS³⁰, poly A, PS³⁰ sequence-related substrates (5′bPS³⁰, 5′bSL, 5′bLF, 5′bRF, 5′bPA³⁰, and 5′bPASE) as well as non-related sequences (PCS and 5′bL3) (FIG. 3B and FIG. 19).
as §2

MIF [3] = molecular target: T6, MIF; test: EMSA; 10 mM Mg2+; no obvious effect vs PS30; settings: tags: GST tag removed (pGex-6P-1); chain copies: 3 (inferred, trimer by FPLC); label: 5' biotin; stem loop, no 3' unpaired bases
Procedure: 5′ biotin labeled ssPS³⁰ and its sequence-related substrates with different structures by removing unpaired bases at the 5′ end, 3′ end, both 5′ and 3′ ends or eliminating the stem loop were used in the EMSA (FIG. 3B, and FIG. 19).
EMSA assay was performed using LightShift Chemiluminescent EMSA kit (Thermo Scientific) following the manufactures instruction. Briefly, purified MIF protein (2 μM) was incubated with biotin-labeled DNA substrates (10 nM) in the binding buffer containing 10 mM MgCl₂ for 30 mM on ice. Then samples were separated on 6% retardation polyacrylamide followed by electrophoretic transfer to nylon membrane. Then, Biotin-labeled DNA is further detected by chemiluminescence using Chemiluminescent Nucleic Acid Detection Module (Thermo Scientific).

## CTCAGCCTCCCAAGTAGCTGGGATTACAGG (ssDNA) [PS30]
MIF D17Q
  binding result: binds
MIF E22Q
  binding result: binds
MIF P16A
  binding result: binds
MIF E22A
  binding result: binds
MIF D17A
  binding result: binds

## AAAAAAAAAACAAGTAGCTGGGATTACAGG (ssDNA) [3F1]
MIF [1]
  binding result: binds

B1: dsSL (dsDNA)
DNA 1: CCTGTAATCCCAAGTAGCTGGGATTACAGG
DNA 2: CCTGTAATCCCAGCTACTTGGGATTACAGG
MIF [2]
  binding result: no binding

## AAAAAAACTCAGCCTCCCAAGTAGCTGGGA (ssDNA) [LF]
MIF [3]
  binding result: binds

B2: dsL3 (dsDNA)
DNA 1: ACCTAAATGCTAGAGCTCGCTGATCAGCCT
DNA 2: AGGCTGATCAGCGAGCTCTAGCATTTAGGT
MIF [2]
  binding result: no binding

B3: dsPS30 (dsDNA)
DNA 1: CTCAGCCTCCCAAGTAGCTGGGATTACAGG
DNA 2: CCTGTAATCCCAGCTACTTGGGAGGCTGAG
MIF [2]
  binding result: no binding

B4: dsPA30 (dsDNA)
DNA 1: AAAAAAAAAAAAAAAAAAAAAAAAAAAAAA
DNA 2: TTTTTTTTTTTTTTTTTTTTTTTTTTTTTT
MIF [2]
  binding result: no binding

B5: dsRF (dsDNA)
DNA 1: TCCCAAGTAGCTGGGATTACAGGAAAAAAA
DNA 2: TTTTTTTCCTGTAATCCCAGCTACTTGGGA
MIF [2]
  binding result: no binding

B6: dsLF (dsDNA)
DNA 1: AAAAAAACTCAGCCTCCCAAGTAGCTGGGA
DNA 2: TCCCAGCTACTTGGGAGGCTGAGTTTTTTT
MIF [2]
  binding result: no binding
